Results on 3 substances are retold here after patent US20080060092A1.

Test [1] addresses FcγRIIIa on human effector cells of a FcγRIIIa Phe/Val^158 heterozygote donor (human) (UniProt P08637). As to the kind of experiment: cell-based or functional assay.
For test [2], the target named is FcγRIIIa on human effector cells of a FcγRIIIa Phe/Phe^158 homozygote donor (human) (UniProt P08637). Description: cell-based or functional assay.

Regarding MDX-060 LEX^Opt (antibody), in test [1], the ADCC EC50, times lower than MDX-060 CHO was determined as 5 fold and the ADCC EC50, times lower than MDX-060 LEX was 3 fold.

With MDX-060 LEX (antibody), the ADCC, maximal percent cell lysis of L540 target cells is 27% in test [2] and 31% in test [1].

On to MDX-060 CHO (antibody), for which the ADCC, maximal percent cell lysis of L540 target cells amounted to 15% in test [2] and 31% in test [1].
